Biological target: Pyruvate kinase M2 (PKM2) (human (endogenous in MDA-MB-231 and MCF-7)) (UniProt P14618)
Assay: native gel or EMSA

Sequence of Pyruvate kinase M2 (PKM2), P14618 1-531 (enzyme; other documents disagree on this pair) (P14618 whole entry): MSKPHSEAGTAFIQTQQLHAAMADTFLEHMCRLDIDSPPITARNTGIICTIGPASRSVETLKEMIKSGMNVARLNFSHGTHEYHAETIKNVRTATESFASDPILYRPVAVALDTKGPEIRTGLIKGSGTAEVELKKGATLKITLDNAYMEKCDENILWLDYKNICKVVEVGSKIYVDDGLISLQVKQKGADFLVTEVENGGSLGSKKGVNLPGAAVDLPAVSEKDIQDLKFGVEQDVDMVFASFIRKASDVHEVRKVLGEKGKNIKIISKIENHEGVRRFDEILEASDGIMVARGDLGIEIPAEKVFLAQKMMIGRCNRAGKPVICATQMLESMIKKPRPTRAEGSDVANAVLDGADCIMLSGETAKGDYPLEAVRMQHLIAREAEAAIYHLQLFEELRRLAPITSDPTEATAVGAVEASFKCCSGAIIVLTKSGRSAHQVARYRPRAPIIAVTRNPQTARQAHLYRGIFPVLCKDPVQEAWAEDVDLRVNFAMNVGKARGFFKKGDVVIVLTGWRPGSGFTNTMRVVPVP

Pyruvate kinase M2 (PKM2), P14618 1-531 (enzyme; other documents disagree on this pair)
stoichiometry N: 2

— paper PMC9581112
